Measurements taken from the supplement of paper PMC9233669.
Fewer inactive variants are shown than the library holds.

Key:
biotinyl-Val-oxazolone = assay: self-aminoacylation, catalytic enhancement (BVO) (fold over background); higher = more active; k-Seq, kA / k0A0; sequences stand for … in GGGAAUGGAUCCACAUCUACGAAUUC…UUCACUGCAGACUUGACGAAGCUG
Method in brief: (§1)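 The uncatalyzed rate is the low-activity peak of a bimodal Gaussian fit, and catalytic enhancement is median kA divided by it. The kA values came from pseudo-first-order fits, with 1000 bootstraps, of per-sequence fraction reacted measured by streptavidin capture, triplicate qPCR and Illumina sequencing. Mutagenized RNA pools with a 21-nt variable region (0.43 μM) were reacted with each biotinyl-aminoacyl-oxazolone at 2–1250 μM in 50 μL HEPES/NaCl/KCl/MgCl2/CaCl2 buffer with 5% acetonitrile, pH 6.9–7.0, for 90 minutes at room temperature.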

biotinyl-Trp-oxazolone = assay: self-aminoacylation, catalytic enhancement (BWO) (fold over background); higher = more active; k-Seq, kA / k0A0; sequences stand for … in GGGAAUGGAUCCACAUCUACGAAUUC…UUCACUGCAGACUUGACGAAGCUG
Method in brief: as §1

biotinyl-Met-oxazolone = assay: self-aminoacylation, catalytic enhancement (BMO) (fold over background); higher = more active; k-Seq, kA / k0A0; sequences stand for … in GGGAAUGGAUCCACAUCUACGAAUUC…UUCACUGCAGACUUGACGAAGCUG
Method in brief: as §1

biotinyl-Ile-oxazolone = assay: self-aminoacylation, catalytic enhancement (BIO) (fold over background); higher = more active; k-Seq, kA / k0A0; sequences stand for … in GGGAAUGGAUCCACAUCUACGAAUUC…UUCACUGCAGACUUGACGAAGCUG
Method in brief: as §1

biotinyl-Leu-oxazolone = assay: self-aminoacylation, catalytic enhancement (BLO) (fold over background); higher = more active; k-Seq, kA / k0A0; sequences stand for … in GGGAAUGGAUCCACAUCUACGAAUUC…UUCACUGCAGACUUGACGAAGCUG
Method in brief: as §1

biotinyl-Phe-oxazolone = assay: self-aminoacylation, catalytic enhancement (BFO) (fold over background); higher = more active; k-Seq, kA / k0A0; sequences stand for … in GGGAAUGGAUCCACAUCUACGAAUUC…UUCACUGCAGACUUGACGAAGCUG
Method in brief: as §1

Sequence	self-aminoacylation (biotinyl-Val-oxazolone)	self-aminoacylation (biotinyl-Trp-oxazolone)	self-aminoacylation (biotinyl-Met-oxazolone)	self-aminoacylation (biotinyl-Ile-oxazolone)	self-aminoacylation (biotinyl-Leu-oxazolone)	self-aminoacylation (biotinyl-Phe-oxazolone)
CCAUACUUCAAGCAAUCAGUC [Fam1B.1 aminoacylation ribozyme variant]	0.81	2.64	0.659	0.884	0.804	7.22
CCAUACUUCAAGCAAUCUGUC [Fam1B.1 aminoacylation ribozyme variant]	0.555	0.251	0.439	0.536	0.384	0.503
CCAUCCUUCAAGCAAUCGGUC [Fam1B.1 aminoacylation ribozyme variant]	1.19	9.38	1.15	1.13	1.3	16.4
CCCCACAUCAAGCAAUCGGUC [Fam1B.1 aminoacylation ribozyme variant]	1.5	2.47	1.22	1.67	1.63	3.1
CCCCACUUCAAGAAAUCGGUC [Fam1B.1 aminoacylation ribozyme variant]	1.42	9.76	1.17	1.36	1.81	11.6
CCCCACUUCAAGCAAACGGUC [Fam1B.1 aminoacylation ribozyme variant]	1.41	1.67	1.36	1.33	1.03	2.34
CCCCACUUCAAGCAACCGGUC [Fam1B.1 aminoacylation ribozyme variant]	2.15	2.18	1.82	1.99	2.05	3.09
CCCCACUUCAAGCAAGCGGUC [Fam1B.1 aminoacylation ribozyme variant]	2.38	5	2.33	2.15	2.61	9.34
CCCCACUUCAAGCAAUCAGUC [Fam1B.1 aminoacylation ribozyme variant]	1.14	6.51	0.987	0.981	1.13	19.8
CCCCACUUCAAGCAAUCGCUC [Fam1B.1 aminoacylation ribozyme variant]	2.55	4.28	2.93	2.08	2.99	8.76
CCCCACUUCAAGCAUUCGGUC [Fam1B.1 aminoacylation ribozyme variant]	3.06	5.46	2.61	2.65	2.48	10.9
CCCCACUUCAAGCUAUCGGUC [Fam1B.1 aminoacylation ribozyme variant]	1.71	2.01	1.05	1.42	1.12	2.16
CCCCACUUCAAGGAAUCGGUC [Fam1B.1 aminoacylation ribozyme variant]	2.15	13	2.33	2.4	2.62	11.3
CCCCACUUCCAGCAAUCGGUC [Fam1B.1 aminoacylation ribozyme variant]	2.48	2.16	1.78	2.18	2.35	1.79
CCCCCCUUCAAGCAAUCGGUC [Fam1B.1 aminoacylation ribozyme variant]	2.67	44.8	2	1.88	3.18	80.1
CCGCACUUCAAGCAAACGGUC [Fam1B.1 aminoacylation ribozyme variant]	1.3	1.04	0.724	0.937	0.684	0.946
CCGCACUUCAAGCAACCGGUC [Fam1B.1 aminoacylation ribozyme variant]	1.54	1.56	1.47	1.47	1.1	1.29
CCGCACUUCAAGCAAGCGGUC [Fam1B.1 aminoacylation ribozyme variant]	1.67	2	1.43	1.65	1.31	1.43
CCGCACUUCAAGCAAUCGCUC [Fam1B.1 aminoacylation ribozyme variant]	2.73	2.73	1.8	1.93	2.14	6.76
CCGCACUUCAAGCAAUCGGGC [Fam1B.1 aminoacylation ribozyme variant]	2.52	2.11	1.35	1.92	1.69	2.26
CCGCACUUCAAGCUAUCGGUC [Fam1B.1 aminoacylation ribozyme variant]	1.42	1.19	0.919	1.15	0.84	0.936
CCGUUUGCUAAUAGUCGCAAG [Fam3.1 aminoacylation ribozyme variant]	0.972	1.1	0.83	1.22	1.02	1.94
CCUACCCUGGUCAUCGAGUGA [Fam2.1 aminoacylation ribozyme variant]	4.14	9.17	6.64	3.88	7.58	49.8
CCUCACCUAGGUCAUCGGGUG [Fam2.2 aminoacylation ribozyme variant]	5.35	5.46	3.92	3.22	4.79	16.2
CCUCACUUCAACCAAUCGGUC [Fam1B.1 aminoacylation ribozyme variant]	1.27	27.6	1.35	1.28	1.84	57.5
CCUCACUUCAAGCAAUAGGUC [Fam1B.1 aminoacylation ribozyme variant]	0.592	0.622	0.468	0.573	0.553	1.26

Sequence	self-aminoacylation (biotinyl-Val-oxazolone)	self-aminoacylation (biotinyl-Trp-oxazolone)	self-aminoacylation (biotinyl-Met-oxazolone)	self-aminoacylation (biotinyl-Ile-oxazolone)	self-aminoacylation (biotinyl-Leu-oxazolone)	self-aminoacylation (biotinyl-Phe-oxazolone)
CCUCACUUCAAGCAAUCAGUC [Fam1B.1 aminoacylation ribozyme variant]	0.921	6.56	0.83	0.781	1.01	21.2
CCUCACUUCAAGCAAUCCGUC [Fam1B.1 aminoacylation ribozyme variant]	0.873	0.756	0.613	0.935	0.736	1.94
CCUCACUUCAAGCAAUCGUUC [Fam1B.1 aminoacylation ribozyme variant]	0.637	0.754	0.473	0.664	0.604	1.29
CCUCACUUCAAGCAUUCGGUC [Fam1B.1 aminoacylation ribozyme variant]	1.43	1.37	1.14	1.3	1.16	1.36
CCUCACUUCAAGCGAUCGGUC [Fam1B.1 aminoacylation ribozyme variant]	1.29	2.72	1.27	1.19	1.53	2.38
CCUCACUUCAAGUAAUCGGUC [Fam1B.1 aminoacylation ribozyme variant]	0.821	8.32	0.949	1	1.17	14.2
CGACACUGCAAGCAAUCGGUC [Fam1B.1 aminoacylation ribozyme variant]	1.47	1.82	1.26	1.52	1.37	1.4
CGACACUUCAAGCAAGCGGUC [Fam1B.1 aminoacylation ribozyme variant]	0.939	1.21	1.27	1.09	1.23	0.837
CGACACUUCAAGCAAUCAGUC [Fam1B.1 aminoacylation ribozyme variant]	0.822	4.25	0.774	0.815	0.903	13.2
CGACACUUCAAGCAAUCGCUC [Fam1B.1 aminoacylation ribozyme variant]	1.96	2.2	1.64	2.1	2.26	2.06
CGACACUUCAAGCCAUCGGUC [Fam1B.1 aminoacylation ribozyme variant]	1.59	1.9	1.17	1.3	1.17	0.589
CGACAGUUCAAGCAAUCGGUC [Fam1B.1 aminoacylation ribozyme variant]	1.53	2.43	1.19	1.48	1.45	2.42
CGACGCUUCAAGCAAUCGGUC [Fam1B.1 aminoacylation ribozyme variant]	1.35	16.7	1.07	1.2	1.58	22.7
CGACUUCAAACACUCGGUCUG [Fam1A.1 aminoacylation ribozyme variant]	1.52	2.31	1.61	1.33	1.39	2.7
CGACUUCAACCAAUCGGUCUG [Fam1A.1 aminoacylation ribozyme variant]	1.42	31.6	1.35	1.56	2.26	64.2
CGCCUUCAAACAAUCGGUCUG [Fam1A.1 aminoacylation ribozyme variant]	1.8	55.5	1.94	1.59	3.13	146
CGGCUUCAAACAAUCGGUCUG [Fam1A.1 aminoacylation ribozyme variant]	1.49	45.1	1.62	1.41	2.46	106
CUAACCCUGGUCAUCGAGUGA [Fam2.1 aminoacylation ribozyme variant]	4.44	9.47	8.98	4.07	8.32	11.8
CUAACUCAAACAAUCGGUCUG [Fam1A.1 aminoacylation ribozyme variant]	0.742	1.24	0.648	0.761	0.716	3.32
CUAAUUCAAAAAAUCGGUCUG [Fam1A.1 aminoacylation ribozyme variant]	0.668	1.18	0.636	0.751	0.727	1.9
CUAAUUCAAACAACCGGUCUG [Fam1A.1 aminoacylation ribozyme variant]	0.754	0.69	0.958	0.947	0.724	0.916
CUAAUUCAAACAAGCGGUCUG [Fam1A.1 aminoacylation ribozyme variant]	0.972	0.632	1.1	0.874	0.847	0.798
CUAAUUCAAACAAUAGGUCUG [Fam1A.1 aminoacylation ribozyme variant]	0.77	0.666	0.704	0.773	0.706	1.11
CUAAUUCAAACAAUCUGUCUG [Fam1A.1 aminoacylation ribozyme variant]	0.665	0.748	0.64	0.784	0.525	1.1
CUAAUUCAAACAUUCGGUCUG [Fam1A.1 aminoacylation ribozyme variant]	0.979	1.02	1.03	1.05	1.02	0.983
